Measured values taken from patent US20140087991A1, “PEPTIDE PRODRUGS” (The Johns Hopkins University, priority 2006, published 2014).

Target: T1, FAP (Homo sapiens, UniProt Q12884)
T1 construct: the extracellular domain of FAP was cloned with a His-6 tag; made in house
T1 sequence (Q12884 26-760 limits assumed): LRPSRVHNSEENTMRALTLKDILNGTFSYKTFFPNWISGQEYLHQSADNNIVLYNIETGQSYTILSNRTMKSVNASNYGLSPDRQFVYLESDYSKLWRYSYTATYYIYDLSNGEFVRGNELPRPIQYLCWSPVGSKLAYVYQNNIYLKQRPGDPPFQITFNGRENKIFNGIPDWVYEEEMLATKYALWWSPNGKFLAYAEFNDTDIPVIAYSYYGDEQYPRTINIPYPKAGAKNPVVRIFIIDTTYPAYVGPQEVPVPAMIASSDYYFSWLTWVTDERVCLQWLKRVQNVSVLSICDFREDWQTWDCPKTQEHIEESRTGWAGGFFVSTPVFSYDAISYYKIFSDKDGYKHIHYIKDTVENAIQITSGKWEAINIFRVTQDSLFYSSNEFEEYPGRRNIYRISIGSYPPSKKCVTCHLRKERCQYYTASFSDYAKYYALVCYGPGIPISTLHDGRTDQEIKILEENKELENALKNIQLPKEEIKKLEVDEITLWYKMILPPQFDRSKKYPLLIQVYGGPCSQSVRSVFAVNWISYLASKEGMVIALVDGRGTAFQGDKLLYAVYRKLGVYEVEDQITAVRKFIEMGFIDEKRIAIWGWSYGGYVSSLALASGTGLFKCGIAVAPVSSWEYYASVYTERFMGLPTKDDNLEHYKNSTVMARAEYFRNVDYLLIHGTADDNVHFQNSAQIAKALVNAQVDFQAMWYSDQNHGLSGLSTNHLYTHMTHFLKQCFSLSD
Experiment: LC-MS/MS cleavage map of FAP digest of 100 kDa recombinant human gelatin
Assay type: biochemical
Details: 100 kDa gelatin digest; for Percentage: share of all occurrences
Method: Human collagen I (Becton Dickinson, Franklin Lakes, N.J.) and recombinant human gelatins of 100 KDa and 8.5 KDa (Fibrogen, San Francisco, Calif.) were dissolved in reaction buffer to a final concentration of 100-300 μg/ml. 0.5-1 μg of FAP was added per 100 μgs of protein substrate. Digestion was done for 4-6 hrs at 37° C. As a positive control trypsin digestion was used. As a negative control, protein solutions were incubated either with BSA or buffer only. Peptide fragments of a size <30 KDa were purified using 30 KDa Microcon spin filter (Millipore, Billerica, Mass.).
Peptides obtained from FAP/gelatin digests were dried using a speedvac (Eppendorf), resuspended in LC/MS loading buffer (3% ACN, 0.1% formic acid), and analyzed using nano-flow LC/MS/MS on an Agilent 1100 series nano-LC system (Agilent) coupled to an LCQ Duo ion trap mass spectrometer (ThermoFinnigan). Peptides were pre-concentrated on a 5 mm Zorbax C18 trap column (Agilent) and then eluted onto a 100×0.075 mm custom-packed Biobasic C18 (ThermoElectron) reversed phase capillary column connected to a laser-pulled electrospray ionization emitter tip (New Objective) at a flowrate of 300 nl/min Peptides were eluted the nanospray source of the LCQ (Proxeon, Denmark) using the following gradient: 0% B at 0 min, 5% B at 8 min, 45% B at 50 min, 90% B at 55 min, 90% B at 60 min (B=0.1% formic acid in acetonitrile) at a spray voltage of 2.5 kV. The LCQ was operated in data-dependent mode using the Xcalibur software (ThermoFinnigan) in which every MS scan (400-1800 m/z) was followed by MS/MS scans (400-1800 m/z) on the 3 most intense ions using an isolation window of ±1.5 Da. Ions selected for MS/MS fragmentation were dynamically excluded for 30 s.
MS/MS data were searched against a collagen FASTA database using the SEQUEST search algorithm built into the Bioworks Browser (ThermoFinnigan) allowing for the variable modification of Methionine oxidation. Peptides were initially filtered in a charge dependent manner using an XCorr filter of 1.5, 2, and 2.5 for singly, doubly, and triply charged peptides. All MS/MS spectra used to identify peptides were manually inspected for validation of y and b-ion series. To quantify the relative abundance of each identified peptide we compared the ion current for each of the observed peptide parent ions from the MS spectra. The contribution of each parent ion to the total ion current was extracted and integrated over the peptide elution peak.
To resolve each particular mass fragment a Liquid Chromatograpy (LC) and Tandem mass spectroscopy (MS-MS) [LC-MS-MS] method was developed. Using this method, peptide fragments from FAP digests of the 8.5 kDa and 100 kDa recombinant gelatin were time-resolved by nano reverse phase LC (FIGS. 12 and 14) and then sequenced using an ion trap mass spectrometer operating in MS/MS mode. Initial methodological issues were worked out using the 8.5 kDa fragment before analyzing the entire 100 kDa protein. MS/MS spectra were searched against the 8.5 kDa and 100 kDa gelatin sequences using the SEQUEST algorithm with no cleavage specificity. Most of the identified cleavage sites in both sized gelatins occurred after Proline. However, FAP cleavage sites in these gelatins were not restricted to Proline alone. FAP was also found to cleave after Ala (e.g. A/A, A/G, A/P, A/R), Asp (e.g. D/G, D/T), Gly (e.g. G/A, G/E, G/L, G/Q, G/P, G/V), Glu (i.e., E/P), Lys (i.e., K/A, K/G), Ser (e.g. S/P) and Val (e.g. V/G).
To identify the most preferentially cleaved sites, we relatively quantified the abundance of each of the identified peptides by integrating the ion current generated by each peptide throughout the chromatogram. After identification of a peptide from a MS/MS spectrum, we extracted the ion current for the parent mass of the ion from the total MS ion chromatogram using a 1.5 Da tolerance window, and then integrated under the peak (FIGS. 12 and 14). […]

Occurences | Percentage | Substance
2 | 0.95 | A.AGRVGPPGP.S: FAP cleavage fragment, 100 kDa recombinant human gelatin
4 | 1.90 | A.PGAPGAPGPVGPAGKSGDRGETGP.A: FAP cleavage fragment, 100 kDa recombinant human gelatin
2 | 0.95 | A.PGDKGESGP.S: FAP cleavage fragment, 100 kDa recombinant human gelatin
2 | 0.95 | D.GQPGAKGEPGDAGAKGDAGPPGP.A: FAP cleavage fragment, 100 kDa recombinant human gelatin
2 | 0.95 | D.GRPGPPGPPGARGQAG.V: FAP cleavage fragment, 100 kDa recombinant human gelatin
5 | 2.38 | E.PGKQGPSGASGERGPPGP.M: FAP cleavage fragment, 100 kDa recombinant human gelatin
2 | 0.95 | G.PPGADGQPGAKGEPGDAGAKGDAGPPGP.A: FAP cleavage fragment, 100 kDa recombinant human gelatin
7 | 3.33 | G.PPGAPGAPGAPGPVGPAGKSGDRGETGP.A: FAP cleavage fragment, 100 kDa recombinant human gelatin
2 | 0.95 | G.PPGPAGAPGDK.G: FAP cleavage fragment, 100 kDa recombinant human gelatin
1 | 0.48 | G.PPGPAGPAGPPGP.I: FAP cleavage fragment, 100 kDa recombinant human gelatin
6 | 2.86 | G.PTGARGAPGDRGEPGPPGP.A: FAP cleavage fragment, 100 kDa recombinant human gelatin
7 | 3.33 | P.AGEKGSPGADGPAGAPGTPGP.Q: FAP cleavage fragment, 100 kDa recombinant human gelatin
8 | 3.81 | P.AGFAGPPGADGQPGAKGEPGDAGAKGDAGPPGP.A: FAP cleavage fragment, 100 kDa recombinant human gelatin
4 | 1.90 | P.AGNPGADGQPGAKGANGAPGIAGAPGFPGARGP.S: FAP cleavage fragment, 100 kDa recombinant human gelatin
1 | 0.48 | P.AGPKGEPGSPGENGAPG.Q: FAP cleavage fragment, 100 kDa recombinant human gelatin
2 | 0.95 | P.AGPPGAPGAPGAPGPVGP.A: FAP cleavage fragment, 100 kDa recombinant human gelatin
1 | 0.48 | P.GGPPGPKGNSGEPGAPGSKGD.T: FAP cleavage fragment, 100 kDa recombinant human gelatin
1 | 0.48 | P.GPSGNAGPPGPP.G: FAP cleavage fragment, 100 kDa recombinant human gelatin
6 | 2.86 | P.IGPPGPAGAPGDKGESGP.S: FAP cleavage fragment, 100 kDa recombinant human gelatin
1 | 0.48 | P.KGAAGEPGKAGERGVPGPPGAVGPAGKDGEAGAQGPPGP.A: FAP cleavage fragment, 100 kDa recombinant human gelatin
2 | 0.95 | P.PGAPGAPGAPGPVGPAGKSGDRGETGP.A: FAP cleavage fragment, 100 kDa recombinant human gelatin

The remaining lines, values behind:

Substance | Occurences | Percentage
A.GPAGPPGP.I: FAP cleavage fragment, 100 kDa recombinant human gelatin | 1 | 0.48
A.GPPGAPGAPGAPGP.V: FAP cleavage fragment, 100 kDa recombinant human gelatin | 1 | 0.48
A.PGAPGPVGPAGKSGDRGETGP.A: FAP cleavage fragment, 100 kDa recombinant human gelatin | 2 | 0.95
A.PGPVGPAGKSGDRGETGP.A: FAP cleavage fragment, 100 kDa recombinant human gelatin | 1 | 0.48
G.PPGPAGAPGDKGESGP.S: FAP cleavage fragment, 100 kDa recombinant human gelatin | 3 | 1.43
G.PSGEPGKQGPSGASGERGPPGP.M: FAP cleavage fragment, 100 kDa recombinant human gelatin | 1 | 0.48
P.AGPPGAPGAPGAPGP.V: FAP cleavage fragment, 100 kDa recombinant human gelatin | 8 | 3.81
P.AGPPGAPGAPGAPGPVGPAGKSGDRGETGP.A: FAP cleavage fragment, 100 kDa recombinant human gelatin | 6 | 2.86
P.AGPPGEAGKPGEQGVPGDLGAPGP.S: FAP cleavage fragment, 100 kDa recombinant human gelatin | 6 | 2.86
P.AGPPGFPGAVGAKGEAGP.Q: FAP cleavage fragment, 100 kDa recombinant human gelatin | 2 | 0.95
P.AGPPGPIGNVGAPGAKGARGSAGPPGATGFPGAAGRVGPPGP.S: FAP cleavage fragment, 100 kDa recombinant human gelatin | 3 | 1.43
P.AGPTGARGAPGDRGEPGPPGP.A: FAP cleavage fragment, 100 kDa recombinant human gelatin | 6 | 2.86
P.AGRPGEVGPPGPPGP.A: FAP cleavage fragment, 100 kDa recombinant human gelatin | 11 | 5.24
P.GPPGAPGP.Q: FAP cleavage fragment, 100 kDa recombinant human gelatin | 1 | 0.48
